The values that follow come from US20150258217A1, “Methods of Synthesizing and Using Peg-Like Fluorochromes” (THE GENERAL HOSPITAL CORPORATION, priority 2012, published 2015).

Data set [1] concerns HT-29, a human colon carcinoma cell line. The data set can be described thus: PN and peptide binding to cells (non-specific binding, FACS). It counts as cell-based. As to conditions: HT-29 cells, 30 min at 37° C., FACS. On the procedure:
HT-29, a human colon carcinoma cell line, was from the American Tissue Culture Collection and maintained according to their instructions. Cells were seeded on 24-well plates at 5×10^5 cells/well in culture medium (RPMI 1640 with 10% FBS) the day before the assay. The day of assay, medium was removed, wells rinsed twice with DPBS (+Ca, +Mg), and 100 μl of 2% FBS/DPBS (+Ca, +Mg) added. 100 μL of Nanoprobes (2 μM) in DPBS (+Ca, +Mg) was added to cells and incubated for 30 min at 37° C. (Probe concentrations were determined spectrophotometrically (783 nm, extinction coefficient of 314 471 cm^−1 M^−1 for IR-783; 497 nm, extinction coefficient of 68 000 cm^−1 M^−1 for Fluorescein; 545 nm, extinction coefficient of 150 000 cm^−1 M^−1 for Cy3). Cells were detached by Trypsin/EDTA and assayed for fluorescence by FACS (BD 7 laser LSR2 for nanoprobes with IR-783; BD 3 laser LSR2 for nanoprobes with Fluorescein or Cy3).

Data set [2] in a line: PN and peptide size (volume, diameter) by FPLC gel filtration (Superdex 200, globular protein standards). It counts as physicochemical. As to conditions: for Molecular Volume FPLC: Table 3B, dipeptides; for Volume FPLC (diameter) / Volume FPLC: Table 5; for Volume FPLC (diameter): converted from globular protein equivalent MW; for Volume FPLC: globular protein equivalent molecular weight. On the procedure:
DOTA-Lys-Cys(IR783)-NH2 is then dissolved in DMSO, with 2 equivalents of an NHS ester of PEG and 6 equivalents of DIPEA. The reaction was at room temperature for 5 days. Product was purified by reverse phase HPLC separation. Product molecular weight was by matrix-assisted laser desorption ionization time-of-flight mass spectrometry (MALDI-TOF MS), with product molecular volume by size exclusion FPLC using globular protein standards (GE Healthcare life science AKTApurifier 10).
The mass spec of low molecular weights (MW) were obtained by MS-ESI Micromass (Waters) and high MW molecules were determined through MALDI-TOF analyses at the Tufts University Core Facility. RP-HPLC (Varian ProStar detector and delivery modules) employed an eluant A (0.1% TFA/water) and eluant B (0.1% TFA and 9.9% water in acetonitrile). Probe size (volume) was determined by FPLC using an ÄKTA Purifier 10 and Superdex™ 200 10/300GL column (GE Healthcare) with a running buffer of 0.05 M sodium phosphate, 0.15 M NaCl (0.1% Tween, pH 7.2) and flow rate of 0.8 ml/min. Standards (GE Healthcare) were Ferritin, Ribonuclease A, Carbonic Anhydrase, and Conalbumin and Blue Dextran 2000. To obtain probe volumes, Mr (apparent molecular weight based on size exclusion retention) was plotted versus Kav. Kav=(Ve−Vo)/(Vt−Vo), Vt=total volume, Ve=elution volume, Vo=void volume.
The column was calibrated with globular protein standards, and globular protein equivalent molecular weights (in kDa) were obtained (Table 5, column 5). These were converted to PN diameters in nm using the relationship: Radius in nm=[…] where M is the molecular weight of a globular protein expressed in daltons (see Erickson, “Size and Shape of Protein Molecules at the Nanometer Level Determined by Sedimentation, Gel Filtration, and Electron Microscopy”, Biological Procedures Online 2009, 11(1): 32-50). PN's diameters ranged from 3.0 to 11.8 nm (see FIG. 23a). Using PEG's of 5 kDa and 30 kDa, selected for their low polydispersity, PN's were synthesized using IR-783, Cy3 and Fluorescein (see FIG. 22a) and their sizes determined (see FIGS. 23a, 23b, 23c). With the 5 kDa PEG and these three fluorochromes (see the magenta chromatograms in FIGS. 22a, 23b and 23c) PN diameters were 4.3 nm. With the 30 kDa PEG and these three fluorochromes (blue chromatograms, 23a, 23b, 23c), PN diameters were now 10.0 nm. For reference, the diameter of a 67 kDa albumin determined by this method was 5.4 nm.

Data set [3] in a line: Quantum yield determination. It counts as physicochemical. As to conditions: for Quant. Yield: Table 5, in PBS. On the procedure:
Quantum yields were determined as described in Demas et al., “Measurement of photoluminescence quantum yields. Review”, Journal of Physical Chemistry 75, 991-1024 (1971), and Shao et al., “Facile Synthesis of Monofunctional Pentamethine Carbocyanine Fluorophores. Dyes and pigments: an international journal 90, 119-122 (2011). For IR-783 a reference quantum yield of 0.043 was used (see Li et al., “Synthesis and characterization of glucosamine-bound near-infrared probes for optical imaging”, Organic letters 8, 3623-3626, 2006); for fluorescein a reference quantum yield was […] (see Sjoback et al., “Absorption and florescence properties of fluorescein”, Spectrohimica Acta Part A 51, L7-L21, 1995). For Cy3 a reference quantum yield of 0.31 was used (Luminprobe Inc). For PN(783)'s, excitation was at 730 nm and emission spectra were recorded from 765 nm to 870 nm in PBS and maximum emission used. For PN(545)'s, excitation was at 515 nm and emission spectra were recorded from 538 nm to 700 nm in PBS and maximum emission used. For PN(497)'s, excitation was at 450 nm and emission spectra were recorded from 475 nm to 620 nm in PBS and maximum emission used. Absorbance of each probe was adjusted less than 0.1. Measurements were made in triplicate and are expressed as mean±SD.

The nature of data set [4]: Blood half-life from serum fluorescence after tail injection. It counts as in vivo. To be noted: mouse, IV; single decay constant fit. The procedure:
Using these procedures and PEG's of different molecular weights, PEG-like NIR fluorochromes of different molecular weights, volumes and pharmacokinetics were synthesized, with results summarized in Table 3B. Blood half-lives were determined by tail injection into mice and measuring serum fluorescence as a function of time. Data (fluorescence versus time) were fit to a single decay constant equation to yield blood half-lives. Human pharmacokinetics will be far slower than that of mice.

The nature of data set [5]: Circulating form of PN's (FPLC of serum after IV injection). Format: in vivo, mouse. As to conditions: nude mice, 20 nmoles. On the procedure: 20 nmoles of PN(783)4.3, PN(783)6.1, or PN(783)10.0 was injected (IV, tail vein) into nude mice (female; 25-30 g; 6-8 weeks old; nu/nu). At the indicated time, 50 μl of blood was collected with microhematocrit capillary tube (Fisher Scientific) from the tail, and transferred to Eppendorf microcentrifuge tube with anticoagulant (EDTA) coating (Fisher Scientific). Tubes were centrifuged (5000 rpm for 5 minutes), and the supernatant was injected to the FPLC, a ÄKTA Purifier 10 with Superdex™ 200 10/300GL column.

For data set [6] the following is noted: literature/vendor reference value; cited from earlier work.
The test system of data set [7] is GFP expressing BT-20 breast carcinoma xenograft. Description: Tumor surface fluorescence after peritumoral (DMR) or IV injection. It counts as in vivo, mouse. To be noted: BT-20 tumors, 24 hours post injection. The procedure:
Day 1, BT-20 cells were planted into 24-well plate at 750,000 cells/well in culture medium (EMEM with 10% FBS). Day 2, the old culture medium was replaced with new culture medium containing lenti-virus (1×10^8 particles/mL) and protamine sulphate (American Pharmaceutical Partners, Los Angelus, Calif.; 10 mg/mL; 1:500 of total volume of medium). Day 3, after 16 hours of transfection, medium was changed to the culture medium (EMEM with 10% FBS). 8 hours later, green cells could be seen via fluorescence microscope.
All animal experiments were approved by the Institutional Review Committee of Massachusetts General Hospital. Female nude mice (25-30 g; 6-8 weeks old; nu/nu; Cox 7, Massachusetts General Hospital, Boston, Mass.) were anesthetized with isoflurane/O2. Tumor cell implantation was performed both sides around the shoulder. 200 μl of cell suspension containing 10^6 cells in Matrigel (BD) was injected subcutaneously. Tumor cells were inoculated for 7 to 10 days.
The diffusion and molecular retention required of the DMR technique with a tumor bearing model were investigated. We peritumorally injected the RGD probe into an animal bearing two GFP expressing BT-20 breast carcinomas and monitored tumor GFP fluorescence and probe fluorescence as a function of time after injection. The non-integrin binding RAD probe was injected into a second animal also bearing two tumors. Overlaying purple probe fluorescence over green GFP yields white. […] Tumor surface fluorescence from both probes was quantified by the use of solution standards.
In FIG. 8a), two animals bearing two tumors were PT injected with the RGD probe or RAD probe as indicated and surface fluorescence images were obtained. […] In FIG. 8b), quantitation of tumor surface fluorescence after injections of the RGD or RAD probes as above. Surface fluorescence was quantified through the use of standard solutions.
To compare the DMR and intravenous (IV) methods, surface fluorescence images of tumor GFP and RGD probe fluorescence were obtained with skin removed, and overlays from the two signals obtained. With both DMR and IV administration, probe fluorescence extended beyond tumor GFP margins to a stromal area beyond the tumor. However, tumor fluorescence was far higher with DMR than IV injection, even though dose was far lower (50 pmoles/mouse by DMR versus 2000 pmoles/mouse by IV).
In FIG. 9a), skin covering GFP-BT-20 tumor was removed. Shown are visible GFP fluorescence, probe (CyAL5.5) fluorescence, and the overlay of GFP and probe fluorescence plus an X-ray image. Green GFP plus purple CyAL5.5 fluorescence yielded a white overlaid image. In FIG. 9b), with DMR or IV, probe fluorescence included a stromal zone of integrin binding surrounding the tumor was seen. […]

Data set [8] is described as follows: Probe volume determination by FPLC (Superdex 75, globular protein standards). Format: physicochemical. The procedure: Size (volume) was determined by FPLC using an ÄKTA Purifier 10 and Superdex™ 75 10/300 GL column (GE Healthcare Lifesciences) with a running buffer of 0.05 M sodium phosphate, 0.15 M NaCl (0.1% Tween, pH 7.2) and flow rate of 0.5 ml/min. The protein standards (Gel Filtration Calibration Kit LMW, code no. 28-4038-41, GE Healthcare) (0.3 mg/ml, mixture of Aprotinin, Ribonuclease A, Ovalbumin, and Conalbumin) and Blue Dextran 2000 were used. To obtain volumes, Mr (apparent molecular weight based on size exclusion retention) was plotted versus Kav. Kav=(Ve−Vo)/[…], Vt=total volume, Ve=elution volume, Vo=void volume.

A short description of data set [9]: Diffusion and elimination after intramuscular administration (surface fluorescence). It counts as in vivo. As to conditions: nude mouse, front extremity, 24 hours post injection. The procedure: The diffusion and elimination of the non-integrin binding RAD probe after an intramuscular administration in the front extremity of a nude mouse was visualized. Using surface fluorescence, the probe rapidly diffused through the extremity and shoulder of the mouse, with vascular uptake and renal elimination evident from bladder fluorescence at 4 hours post injection.

As for “(DOTA)Lys(PEG2K)-Cys(IR-783) [PN(783)3.0]”, the “Cell NSB (percent of cells with fluorescence higher than unstained cell)” value in data set [1] is reported as 50%. In [2], the “Molecular Volume FPLC” value is listed as 11.2 kDa, the “Volume FPLC (diameter)” value is given as 3.0 nm and the “Volume FPLC” value was found to be 11.2 kDa. In addition, in data set [3] (Table 3B, IR-783 dipeptides), the “Quantum Yield” value was 0.15. In addition, in data set [3], the “Quant. Yield” value is 0.13. In data set [4], this substance yielded a Serum half-life of 1.4 min.

Consider “(DOTA)Lys(PEG10K)-Cys(IR-783) [PN(783)6.1]”, for which the “circulating form after injection (FPLC elution vs pre-injection sample)” value in [5] is “identical for pre-injection samples and for sera from injected mice”. Also, the “Cell NSB (percent of cells with fluorescence higher than unstained cell)” value in data set [1] came out at 14%. In data set [2], the “Molecular Volume FPLC” value was 100.7 kDa, the “Volume FPLC (diameter)” value was 6.1 nm and the “Volume FPLC” value was 100.7 kDa. In data set [3] (Table 3B, IR-783 dipeptides), the “Quantum Yield” value was determined as 0.17. Besides, the “Quant. Yield” value in data set [3] was 0.16.

For “(DOTA)Lys(PEG20K)-Cys(IR-783) [PN(783)8.4]”, the “Cell NSB (percent of cells with fluorescence higher than unstained cell)” value in data set [1] is given as 14%. Further, in [2], the “Molecular Volume FPLC” value is on record as 262.5 kDa, the “Volume FPLC (diameter)” value is 8.4 nm and the “Volume FPLC” value came to 262.5 kDa. In data set [3] (Table 3B, IR-783 dipeptides), the “Quantum Yield” value came to 0.17. In addition, in data set [3], the “Quant. Yield” value was 0.16. Besides, in [4], the Serum half-life is 17.6 min.

Cy3: the reference quantum yield in data set [6] is listed as 0.31.

In the case of “DOTA-Lys(CyAL5.5)-Lys(5 kDa PEG)- βAla -Lys(sPEG-RAD) [Compound 7b]”, in [7], the “tumor retention of probe fluorescence after peritumoral injection” value is listed as “cleared by 24 hours post injection”. The “Equiv. Vol.” value in data set [8] (FPLC, globular protein equivalent volume) was 25 kDa. Further, the “Molecular Volume” value in data set [8] (Table 3A, tetrapeptides) was 20 kDa; in data set [8] (Table 4, DMR probes), 20-30 kDa. Further, the “clearance from intramuscular injection site” value in [9] is “detectable fluorescence was not found”. Also, the “Quantum Yield” value stood at 0.20 in data set [3] (Table 3A, CyAL5.5 tetrapeptides) and 0.20 in data set [3] (Table 4, DMR probes).
